From the DeepSol protein solubility set

Assay: soluble on expression in E. coli; label from the status in PepcDB or PDB records

Soluble on expression in E. coli, not soluble:
MGSDKIHHHHHHMKHIGIIDVGSNSVRLLFAEITSKSSFKILTEFKEYVRLGSGFDSKGNITDNKIDSLISVLNLYKNFCNRFEDTEMVVTATEAFRRAKNQESIIQTVKNNLNLNIRVLSGEEEAYYDYFAAINTLDIKDGLIMDIGGSSTELILVANRTLKECVSLQFGAITLIEKFNIKDSIDEKQEKMLKDFLLESFSSIPWLKSISSTTLIGIGGSIRNIGKISKKQKDYPLNLIHNYIMPAKSAEDIYNDVKNKTLEQRKKIKGLSKDRADIFVGASLAVSMLVNILSINEIIICRNGLREGLLLSKLFHKKPIDNILDFSINNVLINNSINITHSFHVYKLTSLLFSSLQSVHKINISLDKVIKTASMFHNAGVNISYYYHHRHSAYIILNSSLYGISHKECVMSACIDIYQRSENIQSMLNEYGNMLEKEDIYAIKVIGILLRIAENLDKDLSGSIYDLKCIVDDAVVIIKTYSKEPSDFLISEAQNSSGLFKNTFNKSLYIV
MGSDKIHHHHHHMKHYALLISFLALSACSQGSEDLNEWMAQTRREAKAEIIPFQAPTLPVAPVYSPPQLTGPNAFDFRRMETDKKGENAPDTKRIKETLEKFSLENMRYVGILKSGQKVSGFIEAEGYVYTVGVGNYLGQNYGRIESITDDSIVLNELIEDSTGNWVSRKAELLLNSSDKNTEQAAAPAAEQN
MGSDKIHHHHHHMKIGFLSRWGATCGVGMHAEILAREFIRMGHEVVVFAPTEESASKEVKYYKRTEAQDPEFVKREIYTEVDNVTEEGWVKEEEILKENLDLLIIETFWRVPVKPLTRLIEKLKIPVISVFHEANIFKAREVVKLPCDKIVVFDRRFYDEILEFYEIPREKVEVISYPVMKPYDAEPERPVSEDKFLFFSFGRQPVEEYCDFLNALKKLRKRFDNVHYWIIRSDGRVDYEAEWITQWQKRPTVEKLYSYLKGSNVHLLPKGNTPNVVVSSTLYQIIASETPIVIRDSRFVETIETDVYGFGPIVKYRNIHDLVHKLELLMLDRELVEDIKKEVRVFVEKYGGDKIAQEFLDLAKTITK
MGSDKIHHHHHHMKIILGIPDLKIPVWTFKQPLMINQLNWDRPSWENETWVDSGGYQIMVRGIKVEIEKVVEKYKILDATQYMSLDIPSIPCHKPSELNYKYFEYLYTVFDKKIVPVIHAYDPESIKKSIDFYSQYTDLVAFGGIVPPTLNKSGNKKLAVAIYYLVRKLWKGKIHVLGAGSPFMRKVYFNADSVDTSTYRVKGIHGMVIIPGKGERYVGNRKIVWGTKRASEEELEILLSFLDKTHYPFQIRFDNWIDRSLINAWVLLNSEYESNNPLIRYSKKLDTFAEDEIEEEVNELCM
MGSDKIHHHHHHMKILFISSLYAPDIGGGAEIILQRTVEGLQQRGYSIAVLATTDRPGLQLAEVNRVKVYRAGLLNQYWHFMPQRPERLARFAWHWRDRYNGGMRDYVRQVIELEQPELVVCHNLTGWSVSAWDEITRANRPVVQVLHDLYLLCPSSTMFKKGQSCQRQCSLCTQFRKHHAQQSEQVSTVVGVSRFMLDTLQAQGYFKGARGYVVHNASPFTPPHAGQTKAADDTAPLRFGYLGTLSENKGVGWLINQFQHLPFKATLQIAGRGQSNDEKRFRAMATSPDISFVGFQKPEDFYQHIDVAIVPSMWNEPFGLVAVEACAHSRPVIASRMGGLPEIIQDQLNGLLCSPDDPDSLGLAMLKLHQQPELLARLGSQARNSVASLLNLDLMLDQYESIFAQTLQDRSTWHGERVQLDPG
MGSDKIHHHHHHMKIPRRLEPLLEDGLIDGVVRQLMSGKEAMVFAVRCGDEIRCAKVYKEANKRSFRQAVDYTENRKTKNSRQARAMAKGSKYGRQMQEAAWQSAEVDALYRLAAAGVRVPTPYNFHEGVLLMELVADADGNAAPRLNDVSFTEGEALAHHQTLIREVVRMLCAGVVHGDLSEFNILVGADGPVIIDLPQAVDAAGNNHAQAMLMRDVHNLRGYFGQFAPALLTTRYAEEIWALYEHGSLHPEVALSGQFECEMPPVDLEGVMREIDDAREQEAARLLRLQELS
MGSDKIHHHHHHMKISEFEGPLDLLLHLIRQNKMDIYDIPIAAITQQYLDYLHSMRALKLDIAGDYLVMAATLMTIKSRFLLPQPEPDEMDEDNEDDDPRDSLVAELLAYKVYQEAAGELREKEQARHQHFTREAMLVPADLSAPKLTAGITLDDLQAAFRQLVAKRRRVRPLTKTVVAETINIDERMTQITTQLQHQPQGLDFADLFTVSASDEMLVTTFMAVLELTKQDQVALQQAEPLSPIHLYLRQDEQHDEH
MGSDKIHHHHHHMKISGHTSVVVAEKLLSEAKFSNLTQSAVVMISQRLCLGIILTGFITNQALAAEPKQSVVPISSVLATNYNKTQIHVTPVHSLVPKLSTKRANFKQETTTQDSVYLADWVLDSGDNQQMPFAIVDKKAAKVYVFDALGQLTGAAPALLGLAVGDDSIPNIGNMALASIKPEQRTTPAGRFVVALGKNIHNKEVLWIDYDAAISLHRVVTSSPKERRLQRLESQNLLERRISYGCINVPVNFYDQVVSPAFTGTNGVVYVLPDTRSIQEVFGSYSEPPRVYRRQIYLSQAAMPDRVKLS
MGSDKIHHHHHHMKIVYIITQATWGGAQAHLYSLIKAQVMRGNAVALVYGVEGRLSASVAKEFQDVQVVRVASLVHPIAPLSDLKAIYTLRKLVKNWQPDIIHLHSSKAGMIGRLATIRLPMKVIFTVHGWGFTPGVGKKRQLLMKTIEKALSRLTTAYICVSQFDYDLGVQSGVITSAHPARVIHNGVTALTGANKATSSEVFVLSMAARFDTPKRQDILIQALTYLPENLPIVCHFLGDGPSIEACKTLTHQLNLDGKVNFYGVVDNVQKYYSQSDVGVLISDYEALPISLVEALAQGLPIIASNVGGIQELIDHNGFLVTNDARQIAEKILTLYQSKKIAEVKTNSYQMYQRHYTEHEMLEQTQAYYLRCLA
MGSDKIHHHHHHMKKHLNTLFVTTQGAYLSKEGETVVVKVDREVRLRVPVHTLGGIVCFGNIGCSPYLMGFCAEKSVCISFLSERGRFLARVQGPVSGNVLLRREQYRRADDPEFSAIMARYVLTGKIANCRTVLQRALRDHQEKINADSVRQAVDHLGRCLTSLGREKSLDNLRGIEGDAAHRYFSVFNELILMQKDAFIFDERNRRPPLDPMNCLLSFAYTLLVHDIRSALEAVGLDPAVGYLHRDRPGRPGLALDIMEEFRPFIVDRLVLSLVNLRKVQAKGFKKSESGAVQMDDDTRRTLLVSYQERKQEEMLHPFLGERTTFGLLFHVQAMLLARYLRGDLDGYPPFIYR
MGSDKIHHHHHHMKKIAILYPAHYEQSSGGAEIQILYLINACKQQNWEIHYIFEDKGTDIKNKENIVLHPLCKMKNYKFCGKGWFLYEKQILRELNAIKPDTIYTRIGSSWIGIATSYAKNHKVKHAHALASDSSVTRKLLGKPLYPLFSQIETYYINKGLVGADVIIAQNVFQQQMLSKRYGKESILVNQMTPSVDESCLQKKYNKIKIIWVANFKELKHPELFVQLAKDLKGHSDRIEMYMCGRSTSKYNNLLQDLNHIDYLNYLGSLDQEQVFDLMNEAHILVNTSEYEGFSNTFVQAWMRKVVVVSMNSNPSDILTSQGIGFLTPNMTNLVATIHKLIEHPEIISELGEKSYQYALENHDLNKNMKKIIEVL
MGSDKIHHHHHHMKKIIYFITLLFLVGCVDLSENMYNDLGKDNYYQTEQEYDAAFMNQYAFLRTMYAWNVFYLQEITTDEACLPQKGRDGYDGGIYQRMHWHTWTDQDVIINGAWQELFKAVGFCNQVLNDLNNSRSDILPENKKKLYIAESRALRAFFYSMLVDMFGNVPIVEKVSELNPPTKTRTEVFNYVEKEIAEVKDQLLRSTDTGSYGRFTQEAALALLSRLYLNAEVYTGTSRLDDCISVSQTLLQKGYQLESTWDAPFAWNNENSKENIWVIPNDEIVANEMSVLFYRNIHWSQRSQWDWKNPNGGWNGVCTVREFIETYDITHDRRCKYDPQNGMYGQFMWGPQFDLSGNPILGTNEYAGQQLDFTLDLPDMVNNKENAGARNIKYKVKVGAQGMENDFALFRIAEINFNLAEATLRKSNEVDSKALEGINKIRTRAGVSTYATGELTLDELYREKGREMCYETLRRTDMIRFGRFIQPMWDKNYTDKETINLFPIPLQATKLNPELKQNPGYTK
MGSDKIHHHHHHMKKILVVSHGAALGGSPISGLNIGRHIDKNQFEVIYAFGEEREIFDIAKKEGFKVFFVPKRSYLTIWDYAKIICREKIDIVHLNTLTSYYKYPAMAAWLCRKKIVWFVRENPEEKRCVRLGKYINALADRIVTVSLDTAKKMFYANHAKLCTIYNGIDLKFKKIEGRERLCEELGLSAREKYILCVASLEERKGVKDLVRAFLSSLPKLQGYKLLIVGEDRTKEQRYFLELKELAKDSSEVIFYGKSQKIQQLLSLSELFVLPSYWEGMARVILEAMACGLPVVASDAGGNREQVMDGVNGFLFPPRDIQALSAALEKAILGGRTQLLGKNSRELLEKNFDIKETTKKIENLYKAL
MGSDKIHHHHHHMKKKDMNKQVKIQDAVAAIILAEGPAGVSTTKVAKRVGIAQSNVYLYFKNKQALIDSVYARETNRILSTTDLDRLSDSTIDVTTRIRLYVQQVYDYSLANPDSLTIIQQIKALNGQGMTISAADADPNNIVANLLTAAIDAKVIKQLPVSLHMGVVFSTIHTHTTNISKGRYAQDQYTFGDIFQMIWDAMKQD
MGSDKIHHHHHHMKKMTILSAAVLMALGAPVAMAKVSEAEAAKLGAELTPQGAVKAGNADGSIPAWDGGITTAVAGYSQGMHHPDPFPTDKILFTITNANKAQYKDFLNPGQVKLFELYPETYKMNVYETRRTASVPQYVYDATKANATRAELIAQGNGISGATIGVPFPIPANGLEVIWNHVLRFRGVDLETNRSQASPTADGSYTLVETAEELRFEYSRPEITLDKLKETNTLFFFKQVVTQPARLAGTALLVKETMDQEALPRQAWTYNTGQRRVRKAPNIAFDTPGTVADGLRTTDDFDMFNGSPVRYNWELVGKKEMYIPYNDYKLHSDSLKYDQILKPGHINPDLVRWEKHRVWEVKATLKAGMRHIYKTRVFYIDEDSWQVSLTDMYDNRDELYRVANAHSINYYEVPTLWTTLEVFHDLQSRRYLAMGLDNEGRMYNFKANLTESNFTPDALRRAGIR
MGSDKIHHHHHHMKKSTLIDKFLDLLSSRSSLREIQNNFIDANIMRDSSINQKYNGQRKSLAWEYISTLNLEDEAEFSKLLNVIETYLFQWNLYIHEVDEDEEINRLIKIINVLGYEYNKDTGKITKNEREVNLSTIKSLAIKFDIEYVLKECNRIEKEALTDPEDAITSAKSMVESTLKHILDSEGEKFNNNETLRGLYKKVSNIMNLSPGGHNENTFKTILSGMINVINGLDEVRNEYGDAHGKSKKNYRPETRHAFLAINAARTITEFLLASYKK
MGSDKIHHHHHHMKKYFPSSELIINEDGSVFHLHVKPEWLADKVILVGDPGRVALVASHFENKECEVESREFKTITGTYKGKRITVVSTGIGCDNIDIVMNELDALANINFETREEKEKFRQLELVRIGTCGGLQPNTPVGTFVCSQKSIGFDGLLNFYAGRNAVCDLPFERAFLNHMGWSGNMCAPAPYVIDASEELIDRIAKEDMVRGVTIAAGGFFGPQGRELRIPLADPKQNDKIEAFEYKGFKITNFEMESSALAGLSRLMGHKAMTVCMVIANRLIKEANTGYKNTIDTLIKTVLDRI
